# Experimental data reported in article PMC3226451.
# Columns and labels:
# L19-UG-TNFRII (human) [1] = biological target: L19-UG-TNFRII (human) (UniProt P20333); assay: SDS-PAGE, non-reducing; SDS-PAGE 4%-12% of purified L19-UG-TNFRII under non-reducing conditions
# L19-UG-TNFRII (human) [2] = biological target: L19-UG-TNFRII (human) (UniProt P20333); assay: SEC; Superdex 200 (S200) FPLC of purified L19-UG-TNFRII in native conditions
substance,measurement,setting,value
L19-UG-TNFRII (from UniProt P20333 23-257),stoichiometry N,L19-UG-TNFRII (human) [1],2
same,stoichiometry N,L19-UG-TNFRII (human) [2],2
